The text below walks through data of paper PMC2894447.

Experiment [1] has as its target Rabbit skeletal muscle actin, monomeric (G-actin), 100% pyrene labeled (rabbit) (UniProt P68135). Description: other fluorescence titration.
The next experiment has as its target APC-B-ΔN4. Description: SEC + other: sucrose gradient sedimentation velocity.

As a reminder, the Kd is the free concentration of one partner at which half of the binding sites on the other are occupied at equilibrium, for simple one-to-one binding. High values mean a looser complex, low ones a tighter complex. The stoichiometry N is a count of units in the complex or per binding partner.

On to “APC-B, the C-terminal Basic domain of adenomatous polyposis coli protein (domain or fragment)”, for which the Kd in experiment [1] is 17.3 nM.

B1: APC-B-ΔN4 (domain or fragment)
chain: ASTKSSGSGKMSYTSPGRQMSQQNLTKQTGLSKNASSIPRSESASKGLNQMNNGNGANKKVELSRMSSTKSSGSESDRSERPVLVRQSTFIKEAPSPTLRRKLEESASFESLSPSSRPASPTRSQAQTPVLSPSLPDMSLSTHSSVQAGGWRKLPPNLSPTIEYNDGRPAKRHDIARSHSESPSRLPINRSGTWKREHSKHSSSLPRVSTWRRTGSSSSILSASSESSEKAKSEDEKHVNSISGTKQSKENQVSAKGTWRKIKENEFSPTNSTSQTVSSGATNGAESKTLIYQMAPAVSKTEDVWVRIEDCPINNPRSGRS
modifications: not checked
Turning to B1, the stoichiometry N with APC-B-ΔN4 amounted to 1.97.
